Our source for the percent of bacterial colonies precipitated in the pellets with recombinant hCD47 values is publication PMC11063069.

The target of the test is His-tagged human CD47 protein (human) (UniProt Q08722). Briefly: pull-down.
Sequence of UniProt Q08722 (Q08722 19-139): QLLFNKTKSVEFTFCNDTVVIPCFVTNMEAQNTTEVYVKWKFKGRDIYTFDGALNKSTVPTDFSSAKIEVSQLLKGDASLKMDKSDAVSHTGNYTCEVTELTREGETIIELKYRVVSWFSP

On to “fibronectin-binding protein B (FnBP B) of S. aureus laboratory strain 8325-4 (from UniProt A0A0H2XKG3 37-940) (natural protein)”, for which the percent of bacterial colonies precipitated in the pellets with recombinant hCD47 is 83.2%.
